Source: article PMC5445279, “Proanthocyanidin accumulation and transcriptional responses in the seed coat of cranberry beans (Phaseolus vulgaris L.) with different susceptibility to postharvest darkening” (BMC Plant Biology, 2017)

B1: PvANR1 (Phaseolus vulgaris) (protein)
chain: MATVKKIGKKACVIGGSGFMASCLVKQLLHKGYAVNTTVRDPDNAKKISHLLALQSLGDLNIFGADLTGERDFDAPIAGCELVFQLATPVNFASEDPENDMIKPAISGVLNVLKACARAKGVKRVILTSSAAAVTINPVKDTGLVMDESNWTDVEFLNTAKPPTWGYPVSKALAEKAAWKFAEENHIDLITVIPTLTTGPSLTPDIPSSVGLATSLITGNDFLINALKGMQFLSGSISITHVEDICRAHIFVAENESASGRYIVSSHSTSVPELAKFLSKRYPQYKVPTEFDDCPSKAKLTISSEKLVKEGFSFKYGIEEIYDQSVEYLKSKGALKN
notes: full ORF (1014 bp PCR product) from seed coat cDNA, pET-30b, E. coli BL21; N-terminal His6 tag cut by enterokinase; forward primer encodes MATVKKIGK

How the values were obtained:
PvANR1 = target: T1, PvANR1 (Phaseolus vulgaris, UniProt A0A1V0E4B3); assay: HPLC-DAD of epicatechin formation, substrate-inhibition fit; format: biochemical; conditions: substrate inhibition by cyanidin, product epicatechin; 800 μM NADPH, 50 mM HEPES pH 7.0, 30 °C; apparent
T1 construct: gene ANR1; full ORF (1014 bp PCR product) from seed coat cDNA, pET-30b, E. coli BL21; N-terminal His6 tag cut by enterokinase; forward primer encodes MATVKKIGK
Excerpt: (§1) HPLC-DAD of epicatechin formation, substrate-inhibition fit on PvANR1

[1] = substrate: NC(=O)C1=CN([C@@H]2O[C@H](COP(=O)(O)OP(=O)(O)OC[C@H]3O[C@@H](n4cnc5c(N)ncnc54)[C@H](OP(=O)(O)O)[C@@H]3O)[C@@H](O)[C@H]2O)C=CC1; assay: HPLC-DAD of epicatechin formation, Hill fit; format: biochemical, Phaseolus vulgaris; conditions: product epicatechin, 100 μM cyanidin, 50 mM HEPES pH 7.0, 30 °C, Hill coefficient 2.5, varied: cofactor
Excerpt: HPLC-DAD of epicatechin formation, Hill fit on PvANR1

[2] = substrate: Oc1cc(O)c2cc(O)c(-c3ccc(O)c(O)c3)[o+]c2c1; assay: HPLC-DAD of epicatechin formation, substrate-inhibition fit; format: biochemical, Phaseolus vulgaris; conditions: product epicatechin, 800 μM NADPH, 50 mM HEPES pH 7.0, 30 °C, apparent, substrate inhibition model
Excerpt: as §1

Molecule	K i (PvANR1) [µM]	K0.5 [1] [µM]	Vmax [1] [µmol/min/mg]	kcat [1] [s⁻¹]	kcat/Km [1] [M⁻¹ s⁻¹]	K0.5 [2] [µM]	Vmax [2] [µmol/min/mg]	kcat [2] [s⁻¹]	kcat/Km [2] [M⁻¹ s⁻¹]
Oc1cc(O)c2cc(O)c(-c3ccc(O)c(O)c3)[o+]c2c1 [cyanidin]	631.5 ± 119.9								
B1		103.5 ± 7.4	0.00334	0.0021 ± 0.0001	20.1 ± 0.49	114.2 ± 19.0	0.0116	0.0072 ± 0.0007	65.4 ± 13.8
